Source: patent US20200239575A1 (UNIVERSITY OF UTAH RESEARCH FOUNDATION, published 2020)

Legend:
mouse serum albumin = target: T1, mouse serum albumin (mouse, UniProt P07724 25-608); assay: native PAGE of a 1-to-1 mixture (FIG. 14a)
T1 construct: also called MSA; mouse albumin

human serum albumin = target: T2, human serum albumin (human, UniProt P02768 25-609); assay: native PAGE of a 1-to-1 mixture (FIG. 14b)
T2 construct: also called HSA

[1] = target: T3, programmed death-1 receptor (PD-1), mouse, on cells (mouse, UniProt Q02242 25-288); assay: flow cytometry, Alexa Fluor 647-labelled ABD-PE, 4 °C 30 min, primary T cells, primary B cells, EL4 and B16 cells
T3 construct: whole, on cells; also called surface PD-1; PD-1^+ cells (EL4)
T3 sequence (looked up): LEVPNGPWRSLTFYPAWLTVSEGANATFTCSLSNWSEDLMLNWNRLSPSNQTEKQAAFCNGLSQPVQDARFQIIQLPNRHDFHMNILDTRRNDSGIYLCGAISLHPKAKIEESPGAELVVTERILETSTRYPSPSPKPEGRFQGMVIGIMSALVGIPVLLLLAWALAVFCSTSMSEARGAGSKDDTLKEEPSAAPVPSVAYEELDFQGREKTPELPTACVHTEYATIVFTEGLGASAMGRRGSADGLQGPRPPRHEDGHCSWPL

[2] = target: T3, programmed death-1 receptor (PD-1), …; assay: flow cytometry dose-response on 1 million EL4 cells, 4 °C 30 min, Alexa Fluor 647-labelled; EC50 of the PD-1^+ fraction taken as Kd (FIG. 10d)
[3] = target: T3, programmed death-1 receptor (PD-1), …; assay: cell-based or functional assay
[4] = target: T3, programmed death-1 receptor (PD-1), …; assay: flow cytometry, 4 °C 30 min, primary B cells (FIG. 8d)
[5] = target: T3, programmed death-1 receptor (PD-1), …; assay: flow cytometry, 4 °C 30 min, primary T cells (FIG. 8c)
[6] = target: T3, programmed death-1 receptor (PD-1), …; assay: flow cytometry, 37 °C 30 min, primary B cells (FIG. 8f)
[7] = target: T3, programmed death-1 receptor (PD-1), …; assay: flow cytometry, 37 °C 30 min, primary T cells (FIG. 8e)
[8] = target: T3, programmed death-1 receptor (PD-1), …; assay: flow cytometry, 4 °C 30 min, EL4 against B16 cells (FIG. 10c)
[9] = target: T3, programmed death-1 receptor (PD-1), …; assay: flow cytometry, 37 °C 30 min, EL4 against B16 cells (FIG. 10e)
[10] = target: T3, programmed death-1 receptor (PD-1), …; assay: flow cytometry, EL4 cells, competitor PD-L1-Fc 500 nM, 4 °C (FIG. 8g)
[11] = target: T3, programmed death-1 receptor (PD-1), …; assay: flow cytometry, binding and uptake by EL4 against B16 cells (FIG. 4B)
[12] = target: T3, programmed death-1 receptor (PD-1), …; assay: flow cytometry, EL4 cells, competitor PD-L1-Fc 500 nM, 37 °C (FIG. 8g)

B1: αPD-1-PE (other)
chain: HHHHHHGGGGSEVQLQESGPGLVKPSQSLSLTCSVTGYSITSSYRWNWIRKFPGNCLEWMGYINSAGISNYNPSLKRRISITRDTSKNQFFLQVNSVTTEDAATYYCARSDNMGTTPFTYWGQGTLVTVSSGGGGSGGGGSGGGGSDIVMTQGTLPNPVPSGESVSITCRSSKSLLYSDGKTYLNWYLQRPGQSPQLLIYWMSTRASGVSDRFSGSGSGTDFTLKISGVEAEDVGIYYCQQGLEFPTFGCGTKLELKGGGGSGGGGSGGGGSRHRQPRGWEQLPTGAEFLGDGGDVSFSTRGTQNWTVERLLQAHRQLEERGYVFVGYHGTFLEAAQSIVFGGVRARSQDLDAIWRGFYIAGDPALAYGYAQDQEPDARGRIRNGALLRVYVPRSSLPGFYRTSLTLAAPEAAGEVERLIGHPLPLRLDAITGPEEEGGRLETILGWPLAERTVVIPSAIPTDPRNVGGDLDPSSIPDKEQAISALPDYASQPGKPPREDLK
notes: Control protein without the ABD
Mouse serum albumin
  binding result: no binding
Human serum albumin
  binding result: no binding

B2: ABD-PE (other)
chain: HHHHHHGGGGSLAEAKVLANRELDKYGVSDFYKRLINKAKTVEGVEALKLHILAALPGGGGSGGGGSGGGGSRHRQPRGWEQLPTGAEFLGDGGDVSFSTRGTQNWTVERLLQAHRQLEERGYVFVGYHGTFLEAAQSIVFGGVRARSQDLDAIWRGFYIAGDPALAYGYAQDQEPDARGRIRNGALLRVYVPRSSLPGFYRTSLTLAAPEAAGEVERLIGHPLPLRLDAITGPEEEGGRLETILGWPLAERTVVIPSAIPTDPRNVGGDLDPSSIPDKEQAISALPDYASQPGKPPREDLK
modifications: Alexa Fluor 647 NHS ester label in the flow cytometry assays (sites not given)
notes: Untargeted control protein without the αPD-1 scFv; also called labeled ABD-PE
[1]
  binding result: no binding (tested: 100 nM)

B3: αPD-1 (full IgG) (antibody, V domains shown)
VH: EVQLQESGPGLVKPSQSLSLTCSVTGYSITSSYRWNWIRKFPGNRLEWMGYINSAGISNYNPSLKRRISITRDTSKNQFFLQVNSVTTEDAATYYCARSDNMGTTPFTYWGQGTLVTVSS
VL: DIVMTQGTLPNPVPSGESVSITCRSSKSLLYSDGKTYLNWYLQRPGQSPQLLIYWMSTRASGVSDRFSGSGSGTDFTLKISGVEAEDVGIYYCQQGLEFPTFGGGTKLELK
notes: Rat anti-mouse PD-1 mAb, IgG2a, κ; also called intact αPD-1; αPD-1 IgG
[2]
  Kd: 3.4 nM

B4: αPD-1-ABD-PE (other)
chain: HHHHHHGGGGSEVQLQESGPGLVKPSQSLSLTCSVTGYSITSSYRWNWIRKFPGNCLEWMGYINSAGISNYNPSLKRRISITRDTSKNQFFLQVNSVTTEDAATYYCARSDNMGTTPFTYWGQGTLVTVSSGGGGSGGGGSGGGGSDIVMTQGTLPNPVPSGESVSITCRSSKSLLYSDGKTYLNWYLQRPGQSPQLLIYWMSTRASGVSDRFSGSGSGTDFTLKISGVEAEDVGIYYCQQGLEFPTFGCGTKLELKGGGGSGGGGSGGGGSLAEAKVLANRELDKYGVSDFYKRLINKAKTVEGVEALKLHILAALPGGGGSGGGGSGGGGSRHRQPRGWEQLPTGAEFLGDGGDVSFSTRGTQNWTVERLLQAHRQLEERGYVFVGYHGTFLEAAQSIVFGGVRARSQDLDAIWRGFYIAGDPALAYGYAQDQEPDARGRIRNGALLRVYVPRSSLPGFYRTSLTLAAPEAAGEVERLIGHPLPLRLDAITGPEEEGGRLETILGWPLAERTVVIPSAIPTDPRNVGGDLDPSSIPDKEQAISALPDYASQPGKPPREDLK
modifications: Alexa Fluor 647 NHS ester label in the flow cytometry assays (sites not given)
notes: Order NH2-HisTag-GGGGS-VH-(GGGGS)3-VL-(GGGGS)3-ABD-(GGGGS)3-PE; made in E. coli Shuffle T7; theoretical molecular weight 57.9 kDa; also called the immunotoxin; the toxin
[3]
  IC50 of cytotoxicity to EL4 cells (FIG. 2C): 1.1 nM
  IC50 of cytotoxicity to PD-1^+ primary B cells (72 h, live cell count by flow cytometry): 0.47 nM
  IC50 of cytotoxicity to PD-1^+ primary T cells (72 h, live cell count by flow cytometry): 0.43 nM
  IC50 of cytotoxicity to wildtype EL4 cells (MTS assay, 72 h): 0.64 nM
  fold toxicity, wildtype EL4 cells against PD-1 knockout EL4 cells: > 1000 fold
[4]
  fold MFI, PD-1^+ over PD-1^- primary B cells: > 5 fold
[5]
  fold MFI, PD-1^+ over PD-1^- primary T cells: > 4 fold
[6]
  fold MFI (binding and uptake), PD-1^+ over PD-1^- primary B cells: > 7 fold
[7]
  fold MFI (binding and uptake), PD-1^+ over PD-1^- primary T cells: > 8 fold
[8]
  fold MFI, EL4 over B16 cells: > 3 fold
[9]
  fold MFI (binding and uptake), EL4 over B16 cells: ~12 fold
[10]
  fold decrease of MFI with PD-L1-Fc against αPD-1-ABD-PE alone: ~8 fold
[11]
  fold binding and uptake, EL4 over B16 cells: 11.7 fold
[12]
  fold decrease of MFI with PD-L1-Fc against αPD-1-ABD-PE alone: ~25 fold
[2]
  Kd: 12 nM
